# Experimental data published in US20240376151A1, “STAPLED PEPTIDES AND METHODS THEREOF” (FOG PHARMACEUTICALS, INC., priority 2022, published 2024).
# Bridge positions count the residues as written; N and C are the ends.
# Target: T1, RNF31 PUB domain (Homo sapiens, UniProt Q96EP0)
# T1 construct: MBP-TEV (N, cleaved yes); made in house; host or cells: E. coli BL21 (DE3) pLysS
# T1 sequence (Q96EP0 1-179): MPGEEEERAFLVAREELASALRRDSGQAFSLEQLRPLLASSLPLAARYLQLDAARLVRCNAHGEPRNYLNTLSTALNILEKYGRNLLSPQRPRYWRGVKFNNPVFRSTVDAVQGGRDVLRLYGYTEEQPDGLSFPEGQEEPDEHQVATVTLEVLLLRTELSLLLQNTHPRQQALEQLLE
# Assay: Phage Library Screening with NGS, RNF31 PUB domain
# Type: binding
# Settings: for Phage library screen NGS readout, Target Concentration 10 / Phage library screen NGS readout, Target Concentration 30 / Phage library screen NGS readout, Target Concentration 100 / Phage library screen NGS readout, Target Concentration 300 / Phage library screen NGS readout, Target Concentration 1000: RNF31 PUB domain clusters C41-C45; for Phage library screen NGS readout, BLANK: clusters C41-C45
# [1] = target concentration 1000, first column
# [2] = target concentration 1000, second column
Sequence,"Phage library screen NGS readout, Target Concentration 10","Phage library screen NGS readout, Target Concentration 30","Phage library screen NGS readout, Target Concentration 100","Phage library screen NGS readout, Target Concentration 300","Phage library screen NGS readout, Target Concentration 1000 [1]","Phage library screen NGS readout, Target Concentration 1000 [2]","Phage library screen NGS readout, BLANK (column 1 of 5)","Phage library screen NGS readout, BLANK (column 2 of 5)","Phage library screen NGS readout, BLANK (column 3 of 5)","Phage library screen NGS readout, BLANK (column 4 of 5)","Phage library screen NGS readout, BLANK (column 5 of 5)"
DPAFWECMYAASDCDAS,0,0,1,2,6,4,1,0,0,0,2
DPAHANCQLAADVCSTY,0,0,0,13,49,33,1,0,0,0,0
DPAHTWCMYAAFDCFES,1,0,0,1,9,4,1,2,2,0,0
DPAIAQCMLAAQVCSTY,2,0,0,5,54,34,1,0,0,0,0
DPAIDACYDAAVMCTYV,0,0,0,6,27,15,0,0,0,0,4
DPAIQECLLAAATCWTY,0,0,0,2,8,4,0,0,0,0,0
DPAIQECYLAAQVCTTY,0,0,0,4,14,13,0,0,0,0,0
DPAIWECVSAAAVCMTY,0,0,0,2,7,7,0,0,0,1,0
DPALEDCQWAALYCDEY,0,0,1,2,7,9,1,1,1,0,0
DPALRDCLDAAIMCTYT,0,1,0,4,5,7,0,0,0,0,0
DPALSHCTVAAMVCSTY,1,1,1,11,96,69,0,0,2,0,0
DPALVTCTWAAIYCDDF,1,1,2,1,4,10,0,1,0,2,0

# Second part, the sequence after the results:
"Phage library screen NGS readout, Target Concentration 10","Phage library screen NGS readout, Target Concentration 30","Phage library screen NGS readout, Target Concentration 100","Phage library screen NGS readout, Target Concentration 300","Phage library screen NGS readout, Target Concentration 1000 [1]","Phage library screen NGS readout, Target Concentration 1000 [2]","Phage library screen NGS readout, BLANK (column 1 of 5)","Phage library screen NGS readout, BLANK (column 2 of 5)","Phage library screen NGS readout, BLANK (column 3 of 5)","Phage library screen NGS readout, BLANK (column 4 of 5)","Phage library screen NGS readout, BLANK (column 5 of 5)",Sequence
0,0,1,2,15,8,0,0,0,0,0,DPAHDWCLYAAYDCRVY
0,1,3,10,42,49,0,0,0,1,0,DPAIRECMLAALVCSTY
0,0,0,7,22,20,0,0,0,0,0,"DPAIVQCAWAALYCDMQ (Ac-DPAIVQCAWAALYCDMQ-NH2; bridge 7-14; also: Cys-Cys staple, linker not named)"
1,3,3,3,7,8,2,2,0,0,0,DPAIYQCSLAADICSTY
0,0,0,3,5,12,0,3,0,0,0,DPALDYCLYAAYDCMYA
2,3,4,47,186,171,2,0,0,3,1,DPALEICWDAAIQCSYV
